Data from patent US20200207829.

Experiments:
TMt-NLS-dCas9VP64 = biological target: T1, TMt-NLS-dCas9VP64
T1 chain: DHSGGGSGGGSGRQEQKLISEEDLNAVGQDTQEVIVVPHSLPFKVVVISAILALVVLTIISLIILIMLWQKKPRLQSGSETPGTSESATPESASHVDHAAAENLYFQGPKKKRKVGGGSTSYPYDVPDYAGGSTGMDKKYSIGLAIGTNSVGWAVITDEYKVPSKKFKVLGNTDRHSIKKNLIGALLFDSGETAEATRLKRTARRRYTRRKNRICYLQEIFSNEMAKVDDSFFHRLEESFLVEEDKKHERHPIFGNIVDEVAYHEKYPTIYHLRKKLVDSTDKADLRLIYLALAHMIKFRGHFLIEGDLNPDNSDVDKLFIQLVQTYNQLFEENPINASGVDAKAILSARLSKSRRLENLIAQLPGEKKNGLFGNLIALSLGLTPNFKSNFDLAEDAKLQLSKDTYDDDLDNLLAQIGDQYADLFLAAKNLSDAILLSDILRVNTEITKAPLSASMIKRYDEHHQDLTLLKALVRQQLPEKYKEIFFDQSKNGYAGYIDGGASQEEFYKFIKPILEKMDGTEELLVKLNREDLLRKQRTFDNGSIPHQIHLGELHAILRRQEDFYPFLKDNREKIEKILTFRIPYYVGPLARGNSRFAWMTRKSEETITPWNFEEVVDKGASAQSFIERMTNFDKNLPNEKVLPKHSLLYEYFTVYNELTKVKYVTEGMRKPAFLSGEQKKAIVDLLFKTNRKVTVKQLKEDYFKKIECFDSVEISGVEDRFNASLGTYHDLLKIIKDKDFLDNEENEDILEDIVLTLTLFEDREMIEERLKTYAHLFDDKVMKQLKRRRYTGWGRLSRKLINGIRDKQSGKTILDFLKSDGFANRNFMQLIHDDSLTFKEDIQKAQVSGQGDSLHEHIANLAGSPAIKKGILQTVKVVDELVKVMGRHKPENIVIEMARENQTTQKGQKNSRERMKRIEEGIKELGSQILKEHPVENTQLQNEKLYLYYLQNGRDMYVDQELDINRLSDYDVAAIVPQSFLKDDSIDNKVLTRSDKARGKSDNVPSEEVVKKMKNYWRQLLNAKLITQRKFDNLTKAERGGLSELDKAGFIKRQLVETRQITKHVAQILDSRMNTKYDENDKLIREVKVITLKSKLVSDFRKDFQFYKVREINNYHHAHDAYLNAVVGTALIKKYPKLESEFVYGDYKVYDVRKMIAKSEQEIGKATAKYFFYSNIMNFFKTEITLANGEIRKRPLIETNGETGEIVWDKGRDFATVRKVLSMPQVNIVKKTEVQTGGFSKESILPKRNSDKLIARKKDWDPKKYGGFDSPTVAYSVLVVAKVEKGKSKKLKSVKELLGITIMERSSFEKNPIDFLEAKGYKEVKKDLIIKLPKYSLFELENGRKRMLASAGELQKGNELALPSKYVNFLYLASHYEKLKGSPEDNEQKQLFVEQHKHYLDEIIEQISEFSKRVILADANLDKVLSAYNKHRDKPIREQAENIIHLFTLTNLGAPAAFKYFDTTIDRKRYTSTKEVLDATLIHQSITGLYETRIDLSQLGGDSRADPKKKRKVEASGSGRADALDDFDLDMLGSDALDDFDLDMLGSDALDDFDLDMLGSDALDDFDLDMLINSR

B1: TEV protease (protein)
chain: MHHHHHHHHHGESLFKGPRDYNPISSTICHLTNESDGHTTSLYGIGFGPFIITNKHLFRRNNGTLLVQSLHGVFKVKNTTTLQQHLIDGRDMIIIRMPKDFPPFPQKLKFREPQREERICLVTTNFQTKSMSSMVSDTSCTFPSSDGIFWKHWIQTKDGQCGSPLVSTRDGFIVGIHSASNFTNTNNYFTSVPKNFMELLTNQEAQQWVSGWRLNADSVLWGGHKVFMVKPEEPFQPVKEATQLMNRRRRP
Question: Which results are given for B1?
Answer: EYFP activation score (TMt-NESΔTCS-dCas9VP64): did not show any activity above baseline levels; anti-HA immunofluorescence, localisation of dCas9-VP64 (TMt-NLS-dCas9VP64): co-expression of TEV protease resulted in highly efficient release of dCas9-VP64 from the membrane tether and subsequent nuclear localization
